In the Human Domainome abundance scans (Beltran et al. 2025):
± gives the uncertainty stated by the source.

B1: Calcium-binding protein 2, residues 155 to 219; numbered along this chain, Q9NPB3 (parent)
chain: RELRDAFREFDTNGDGRISVGELRAALKALLGERLSQREVDEILQDVDLNGDGLVDFEEFVRMMS

Variants of: B1
Assay: abundance fitness (aPCA) (normalised: wild type 0, dead -1); higher = more abundant; growth selection in yeast, the domain comes from the species named
Conditions: Homo sapiens

Variant | abundance fitness
E22I | -0.729 ± 0.34
E22D | -0.49 ± 0.34
E22Q | -0.357 ± 0.1
E22P | -1.05 ± 0.16
E2V | -0.357 ± 0.091
E2P | -0.21 ± 0.076
E2R | -0.128 ± 0.058
E2A | -0.509 ± 0.084
E2T | -0.093 ± 0.067
G51N | 0.098 ± 0.12
G51H | -0.071 ± 0.15
G51E | 0.181 ± 0.063
G51M | 0.047 ± 0.071
G51P | 0.151 ± 0.1
Q37A | 0.003 ± 0.088
Q37P | 0.266 ± 0.16
Q37S | -0.104 ± 0.13
Q37C | -0.533 ± 0.25
Q37K | 0.022 ± 0.14
Q37T | 0.021 ± 0.082
Q37L | -0.017 ± 0.079

Variant | abundance fitness
R17Q | -0.193 ± 0.11
R17I | -0.141 ± 0.12
R17Y | -0.02 ± 0.29
R17P | -0.701 ± 0.082
R17A | 0.001 ± 0.058
I43N | 0.053 ± 0.18
I43C | -0.009 ± 0.14
I18C | -0.311 ± 0.11
I18M | 0.081 ± 0.065
I18H | -0.917 ± 0.23
D52I | -0.126 ± 0.082
D52F | -0.414 ± 0.18
D52H | -0.049 ± 0.11
D52S | -0.133 ± 0.08
D52K | -0.094 ± 0.1
D52A | 0.009 ± 0.052
L27N | 0.088 ± 0.13
L27V | 0.092 ± 0.068
L27I | 0.102 ± 0.11
L27C | 0.014 ± 0.091
L27T | 0.064 ± 0.082

Variant | abundance fitness
L27P | -0.495 ± 0.081
E58K | 0.102 ± 0.2
E58W | -0.431 ± 0.13
E58P | -0.025 ± 0.1
E58D | -0.061 ± 0.092
E58L | -0.008 ± 0.097
E58T | -0.088 ± 0.078
E58C | -0.576 ± 0.17
E58M | -0.202 ± 0.2
E33C | 0.006 ± 0.094
E33K | 0.037 ± 0.21
E33Q | -0.009 ± 0.071
E33A | 0.002 ± 0.056
E33T | -0.032 ± 0.056
G32E | -0.522 ± 0.083
G32F | -0.275 ± 0.12
G32L | -0.64 ± 0.12
G32V | -0.429 ± 0.19
G32K | -0.206 ± 0.1
G32W | -0.282 ± 0.1
Q45D | -0.144 ± 0.092

Variant | abundance fitness
Q45A | -0.069 ± 0.061
Q45R | 0.054 ± 0.072
Q45H | -0.013 ± 0.22
Q45G | -0.19 ± 0.12
Q45T | 0.003 ± 0.067
Q45K | -0.215 ± 0.19
R38Q | -0.212 ± 0.21
R38I | 0.03 ± 0.069
R38N | 0.085 ± 0.1
R38Y | -0.114 ± 0.14
L30Q | 0.015 ± 0.094
L30P | -0.158 ± 0.094
L30V | -0.053 ± 0.093
L30R | 0.069 ± 0.052
L30D | -0.101 ± 0.27
L30A | -0.255 ± 0.072
L30M | -0.595 ± 0.35
V20C | 0.061 ± 0.16
V20A | -0.317 ± 0.092
V20L | 0.093 ± 0.05
